Assay results taken from PMC11964753 (Molecules and Cells, 2025).
Values joined by “and” are separate entries in the source; they are usually repeats but may differ in a detail not shown here. Equal entries are not always repeated.

Biological target: the molecule itself
Test: cryo-EM structure

B1: mouse bestrophin 1 with a C-terminal tandem tag of BRIL and 3X Flag (mBEST1-BRIL-3xFLAG) (natural protein, UniProt O88870 1-551, looked up)
chain: MTITYTNKVANARLGSFSSLLLCWRGSIYKLLYGEFLVFIFLYYSIRGLYRMVLSSDQQLLFEKLALYCDSYIQLIPISFVLGFYVTLVVSRWWSQYENLPWPDRLMIQVSSFVEGKDEEGRLLRRTLIRYAILGQVLILRSISTSVYKRFPTLHHLVLAGFMTHGEHKQLQKLGLPHNTFWVPWVWFANLSMKAYLGGRIRDTVLLQSLMNEVCTLRTQCGQLYAYDWISIPLVYTQVVTVAVYSFFLACLIGRQFLNPNKDYPGHEMDLVVPVFTILQFLFYMGWLKVAEQLINPFGEDDDDFETNWIIDRNLQVSLLSVDGMHQNLPPMERDMYWNEAAPQPPYTAASARSRRHSFMGSTFNISLKKEDLELWSKEEADTDKKESGYSSTIGCFLGLQPKNYHLPLKDLKTKLLCSKNPLLEGQCKDANQKNQKDVWKFKGLDFLKCVPRFKRRGSHCGPQAPSSHPTEQSAPSSSDTGDGPSTDYQEICHMKKKTVEFNLNIPESPTEHLQQRRLDQMSTNIQALMKEHAESYPYRDEAGTKPVLYE
stoichiometry N: 5 and 10
